pIC50: −log10 of the molar value.
Target: Sortilin SORTECD_HIS (human) (UniProt Q99523)
Assay: HTRF: displacement of PGRN binding to His-tagged Sortilin ECD

Sequence of Sortilin SORTECD_HIS (human) (Q99523 other isoform, or with tags, fused parts or gaps limits assumed): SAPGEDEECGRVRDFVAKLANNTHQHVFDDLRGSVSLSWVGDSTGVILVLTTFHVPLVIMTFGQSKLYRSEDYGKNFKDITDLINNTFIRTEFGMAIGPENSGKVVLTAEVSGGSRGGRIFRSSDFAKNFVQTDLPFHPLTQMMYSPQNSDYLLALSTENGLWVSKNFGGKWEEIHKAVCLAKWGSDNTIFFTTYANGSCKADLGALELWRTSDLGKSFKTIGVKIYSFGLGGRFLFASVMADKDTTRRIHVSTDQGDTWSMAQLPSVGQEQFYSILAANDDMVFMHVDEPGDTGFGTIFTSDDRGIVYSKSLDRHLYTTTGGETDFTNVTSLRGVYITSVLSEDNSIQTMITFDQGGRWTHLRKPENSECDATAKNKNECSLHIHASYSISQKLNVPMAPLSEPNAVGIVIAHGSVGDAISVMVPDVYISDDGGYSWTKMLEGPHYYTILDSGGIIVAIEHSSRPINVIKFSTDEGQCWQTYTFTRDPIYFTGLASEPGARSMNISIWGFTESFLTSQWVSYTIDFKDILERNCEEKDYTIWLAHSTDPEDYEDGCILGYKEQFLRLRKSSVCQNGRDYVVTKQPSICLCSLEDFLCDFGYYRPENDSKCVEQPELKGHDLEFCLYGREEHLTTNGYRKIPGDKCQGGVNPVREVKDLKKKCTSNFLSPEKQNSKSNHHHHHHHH

pIC50: < 6.00
Substance: IgG1-b12 (antibody)

Source: US20230159643A1
